Common to all, as to experiment: NMR HSQC titration
The target of data set [1] is T1, TDP-43 CTD WT (Homo sapiens, UniProt Q13148 267-414).
The target in data set [2] is T1, TDP-43 CTD WT. The source holds these as a separate data set.
The target in data set [3] is T1, TDP-43 CTD WT. The source holds these as a separate data set.
Data set [4] concerns the target T1, TDP-43 CTD WT. The source holds these as a separate data set.
Data set [5] deals with T1, TDP-43 CTD WT. The source holds these as a separate data set.
For data set [6], the target named is T1, TDP-43 CTD WT. The source holds these as a separate data set.
For data set [7], the target named is T1, TDP-43 CTD WT. The source holds these as a separate data set.

Read-outs that look alike come from different tables or passages of the source.

T1 sequence (Q13148 267-414): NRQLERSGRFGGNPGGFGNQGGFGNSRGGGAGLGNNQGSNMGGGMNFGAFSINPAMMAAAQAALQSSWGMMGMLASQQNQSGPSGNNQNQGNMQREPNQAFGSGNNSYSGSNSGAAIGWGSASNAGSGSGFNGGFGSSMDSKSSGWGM

UUUUUUUUUUUU (ssDNA, deoxyuridine (DNA backbone) throughout) [dU12]: the binding result in data set [1] is listed as “binds”.

For CACCTTCCCCACCCTCCCCACCCTCCCCATAAGC (structured_DNA) [c-Myc I-motif], the binding result in data set [2] is reported as “binds”.

Turning to TGTGTGTGTGTGTGTGTGTGTGTGTGTGTGTGTG (ssDNA) [(TG)17], the binding result in data set [3] is “binds”.

For the molecule GGGGGGGGGGGG (structured_DNA) [dG12], in data set [4], the binding result is recorded as “binds”.

Turning to GCTTATGGGGAGGGTGGGGAGGGTGGGGAAGGTG (structured_DNA) [c-Myc G4], the binding result in data set [5] is “binds”.

Regarding CCCCCCCCCCCC (structured_DNA) [dC12], the binding result in data set [4] is recorded as “binds”.

Take AAAAAAAAAAAA (ssDNA) [dA12]: in data set [6], the binding result is given as “binds”.

TTTTTTTTTTTT (ssDNA) [dT12]: in data set [7], the binding result is recorded as “binds”.

The values above are taken from article doi:10.64898/2025.12.22.695782.
